Holding throughout (assay): EMSA
The target in data set [1] is T1, BLM HRDC domain WT (Homo sapiens, UniProt P54132 1210-1294).
The target of data set [2] is T1, BLM HRDC domain WT. This is another data set of the same source.
For a further data set, the target named is BLM HRDC Y1237A (Homo sapiens, UniProt P54132 1210-1294, Y1237A).
A further data set deals with BLM HRDC T1243A (Homo sapiens, UniProt P54132 1210-1294, T1243A).
BLM HRDC T1243A, sequence (P54132 1210-1294 T1243A): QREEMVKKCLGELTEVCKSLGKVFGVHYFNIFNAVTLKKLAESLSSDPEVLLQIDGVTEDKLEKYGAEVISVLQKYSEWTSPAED

T1 sequence (P54132 1210-1294): as the sequence (P54132 1210-1294 T1243A) above, with A34T counted along it
BLM HRDC Y1237A, sequence (P54132 1210-1294 Y1237A): as the sequence (P54132 1210-1294 T1243A) above, with Y28A, A34T counted along it

B1: 1SD*/2DD dsDNA 29 bp (dsDNA)
DNA 1: GCGCATATGGAGCGTTTCCAAAGTCTTAG
DNA 2: CTAAGACTTTGGAAACGCTCCATATGCGC
Consider B1, for which the binding result in the data set with BLM HRDC domain WT [1] is recorded as “no binding”.

Broadly, the Kd is a measure of binding affinity in units of concentration. On to GCGCATATGGAGCGTTTCCAAAGTCTTAG (ssDNA) [1SD* ssDNA 29 nt], for which the Kd with BLM HRDC domain WT [2] is about 100 µM. Moreover, the binding result with BLM HRDC Y1237A and in the data set with BLM HRDC T1243A was “binds” throughout.

The values are drawn from publication PMC2995041.
